Measured values: paper PMC3486911 (PLoS Pathogens, 2012)
“And” between values parts separate entries of the source, which are not always exact repeats. Equal entries are not always repeated. Where two headings read alike, the source gives them in different places.

Key:
Assay in all cases: SPR
[1] = target: V1 fHbp (V1.p1), wild type (Neisseria meningitidis) (UniProt Q9JXV4)
[2] = target: V1 fHbp Arg195-Ala (Neisseria meningitidis)
[3] = target: V1 fHbp Gln193-Ala (Neisseria meningitidis)
[4] = target: V1 fHbp His203-Ala (Neisseria meningitidis)
[5] = target: V1 fHbp Ile196-Ala (Neisseria meningitidis)
[6] = target: V1 fHbp Lys191-Ala (Neisseria meningitidis)
[7] = target: V1 fHbp Phe194-Ala (Neisseria meningitidis)
[8] = target: V1 fHbp (V1.p1), wild type (Neisseria meningitidis) (UniProt Q9JXV4); remark: listed apart in the source
[9] = target: V2 fHbp (V2.p21), wild type (Neisseria meningitidis) (UniProt E6MV22)
[10] = target: V2 fHbp Gln191 mutant (to Ala) (Neisseria meningitidis)
[11] = target: V2 fHbp Glu262 mutant (to Ala) (Neisseria meningitidis)
[12] = target: V2 fHbp His203 mutant (to Ala) (Neisseria meningitidis)
[13] = target: V2 fHbp Leu199 mutant (to Ala) (Neisseria meningitidis)
[14] = target: V2 fHbp Lys264 mutant (to Ala) (Neisseria meningitidis)
[15] = target: V2 fHbp Lys268 mutant (to Ala) (Neisseria meningitidis)
[16] = target: V2 fHbp Ser302 mutant (to Ala) (Neisseria meningitidis)
[17] = target: V2 fHbp Thr304 mutant (to Ala) (Neisseria meningitidis)
[18] = target: V2 fHbp Val196 mutant (to Ala) (Neisseria meningitidis)
[19] = target: V2 fHbp Val311 mutant (to Ala) (Neisseria meningitidis)
[20] = target: V3 fHbp (V3.p28), wild type (Neisseria meningitidis) (UniProt E6MV22)
[21] = target: V3 fHbp (V3.p28), wild type (Neisseria meningitidis) (UniProt E6MV22); remark: listed apart in the source
[22] = target: V3 fHbp Ala99Glu (Neisseria meningitidis)
[23] = target: V3 fHbp Asp126 mutant (to Ala) (Neisseria meningitidis)
[24] = target: V3 fHbp Asp43 mutant (to Ala) (Neisseria meningitidis)
[25] = target: V3 fHbp Asp92 mutant (to Ala) (Neisseria meningitidis)
[26] = target: V3 fHbp Gln134 mutant (to Ala) (Neisseria meningitidis) (UniProt E6MV22)
[27] = target: V3 fHbp Gln87 mutant (to Ala) (Neisseria meningitidis) (UniProt E6MV22)
[28] = target: V3 fHbp His190 mutant (to Ala) (Neisseria meningitidis)
[29] = target: V3 fHbp Ile122 mutant (to Ala) (Neisseria meningitidis)
[30] = target: V3 fHbp Ile96 mutant (to Ala) (Neisseria meningitidis)
[31] = target: V3 fHbp Leu117 mutant (to Ala) (Neisseria meningitidis)
[32] = target: V3 fHbp Lys127 mutant (to Ala) (Neisseria meningitidis)
[33] = target: V3 fHbp Lys32 mutant (to Ala) (Neisseria meningitidis)
[34] = target: V3 fHbp Pro46 mutant (to Ala) (Neisseria meningitidis)
[35] = target: V3 fHbp Thr128 mutant (to Ala) (Neisseria meningitidis)
[36] = target: V1 fHbp (V1.p1), wild type (Neisseria meningitidis) (UniProt Q9JXV4); remark: listed apart in the source
[37] = target: V1 fHbp Arg195-Ala (Neisseria meningitidis); remark: listed apart in the source
[38] = target: V1 fHbp Gln193-Ala (Neisseria meningitidis); remark: listed apart in the source
[39] = target: V1 fHbp His203-Ala (Neisseria meningitidis); remark: listed apart in the source
[40] = target: V1 fHbp Ile196-Ala (Neisseria meningitidis); remark: listed apart in the source
[41] = target: V1 fHbp Lys191-Ala (Neisseria meningitidis); remark: listed apart in the source
[42] = target: V1 fHbp Phe194-Ala (Neisseria meningitidis); remark: listed apart in the source
[43] = target: V2 fHbp Gln191 mutant (to Ala) (Neisseria meningitidis); remark: listed apart in the source
[44] = target: V2 fHbp Glu262 mutant (to Ala) (Neisseria meningitidis); remark: listed apart in the source
[45] = target: V2 fHbp His203 mutant (to Ala) (Neisseria meningitidis); remark: listed apart in the source
[46] = target: V2 fHbp Leu199 mutant (to Ala) (Neisseria meningitidis); remark: listed apart in the source
[47] = target: V2 fHbp Lys264 mutant (to Ala) (Neisseria meningitidis); remark: listed apart in the source
[48] = target: V2 fHbp Lys268 mutant (to Ala) (Neisseria meningitidis); remark: listed apart in the source
[49] = target: V2 fHbp Ser302 mutant (to Ala) (Neisseria meningitidis); remark: listed apart in the source
[50] = target: V2 fHbp Thr304 mutant (to Ala) (Neisseria meningitidis); remark: listed apart in the source
[51] = target: V2 fHbp Val196 mutant (to Ala) (Neisseria meningitidis); remark: listed apart in the source
[52] = target: V2 fHbp Val311 mutant (to Ala) (Neisseria meningitidis); remark: listed apart in the source
[53] = target: V3 fHbp (V3.p28), wild type (Neisseria meningitidis) (UniProt E6MV22); remark: listed apart in the source

Substance: human factor H CCP 6 and 7 (fH67) (domain or fragment)
- Kd [1]: 2.8 nM and 2.35 nM and 2.45 nM
- Kd [2]: 218 nM
- Kd [3]: 4.75 nM
- Kd [4]: 1.7 nM
- Kd [5]: 1.5 nM
- Kd [6]: 4.15 nM
- Kd [7]: 6.15 nM
- Kd [8]: 2.85 nM
- Kd [9]: 2.15 nM and 1.85 nM
- Kd [10]: 2.6 nM
- Kd [11]: 5.3 nM
- Kd [12]: 2.65 nM
- Kd [13]: 15.5 nM
- Kd [14]: 9.05 nM
- Kd [15]: 2.25 nM
- Kd [16]: 4.05 nM
- Kd [17]: 8.2 nM
- Kd [18]: 23 nM
- Kd [19]: 7.45 nM
- Kd [20]: 2.95 nM
- Kd [21]: 2.4 nM and 2.3 nM
- Kd [22]: 79 nM and 70 nM
- Kd [23]: 6.3 nM and 6.5 nM
- Kd [24]: 3 nM and 3.4 nM
- Kd [25]: 4.7 nM and 4.8 nM
- Kd [26]: 2.6 nM and 2.7 nM
- Kd [27]: 0.71 nM and 0.72 nM
- Kd [28]: 3.4 nM and 3.3 nM
- Kd [29]: 9.4 nM and 11 nM
- Kd [30]: 14 nM and 15 nM
- Kd [31]: 5.2 nM
- Kd [32]: 2.9 nM and 3 nM
- Kd [33]: 3 nM
- Kd [34]: 0.026 nM and 0.03 nM
- Kd [35]: 4 nM and 4.4 nM
- Kd [36]: 2.7 nM and 3.1 nM and 2.6 nM
- Kd [37]: 360 nM and 75 nM
- Kd [38]: 5.3 nM and 4.2 nM
- Kd [39]: 1.4 nM and 2 nM
- Kd [40]: 1.4 nM and 1.6 nM
- Kd [41]: 4.5 nM and 3.8 nM
- Kd [42]: 6 nM and 6.3 nM
- Kd [43]: 2.7 nM and 2.5 nM
- Kd [44]: 5.6 nM and 5 nM
- Kd [45]: 2.5 nM and 2.8 nM
- Kd [46]: 16 nM and 15 nM
- Kd [47]: 9.5 nM and 8.6 nM
- Kd [48]: 2.3 nM and 2.2 nM
- Kd [49]: 3.7 nM and 4.4 nM
- Kd [50]: 7.9 nM and 8.5 nM
- Kd [51]: 32 nM and 14 nM
- Kd [52]: 7 nM and 7.9 nM
- Kd [53]: 2.8 nM and 3 nM and 2.9 nM
